Assay results from paper PMC11403483 (The Journal of Biological Chemistry, 2024).

Columns and labels:
native PSG1 = native PSG1 (human (endogenous in serum of pregnant …, UniProt P11464 35-419)); assay: SPR
[1] = target: recombinant PSG1 (pregnancy-specific glycoprotein 1) (human, UniProt P11464 35-419, complex N-linked glycans); assay: SPR
Chain of recombinant PSG1 (pregnancy-specific glycoprotein 1) (P11464 35-419): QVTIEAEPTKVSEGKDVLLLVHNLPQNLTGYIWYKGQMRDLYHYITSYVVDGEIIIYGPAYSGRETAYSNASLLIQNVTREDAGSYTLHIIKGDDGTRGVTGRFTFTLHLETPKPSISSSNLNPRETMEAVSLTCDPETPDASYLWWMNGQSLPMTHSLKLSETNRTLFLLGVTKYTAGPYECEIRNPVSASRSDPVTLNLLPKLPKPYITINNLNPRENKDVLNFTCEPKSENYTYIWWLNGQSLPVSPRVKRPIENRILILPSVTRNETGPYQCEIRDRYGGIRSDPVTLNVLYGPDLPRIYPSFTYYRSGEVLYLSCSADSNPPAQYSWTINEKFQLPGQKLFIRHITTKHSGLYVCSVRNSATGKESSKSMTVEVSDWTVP

Chain of native PSG1 (human (P11464 35-419): as above

- Kd (native PSG1): 40.3 nM
- koff (native PSG1): 0.0016 s⁻¹
- kon (native PSG1): 39000 M⁻¹ s⁻¹
- Kd [1]: 21.6 nM
- koff [1]: 0.00156 s⁻¹
B1: recombinant human galectin 9 (natural protein, UniProt O00182-2 1-323, looked up)
chain: MAFSGSQAPYLSPAVPFSGTIQGGLQDGLQITVNGTVLSSSGTRFAVNFQTGFSGNDIAFHFNPRFEDGGYVVCNTRQNGSWGPEERKTHMPFQKGMPFDLCFLVQSSDFKVMVNGILFVQYFHRVPFHRVDTISVNGSVQLSYISFQPPGVWPANPAPITQTVIHTVQSAPGQMFSTPAIPPMMYPHPAYPMPFITTILGGLYPSKSILLSGTVLPSAQRFHINLCSGNHIAFHLNPRFDENAVVRNTQIDNSWGSEERSLPRKMPFVRGQSFSVWILCEAHCLKVAVDGQHLFEYYHRLRNLPTINRLEVGGDIQLTHVQT
